One experiment addresses ClpS (Escherichia coli) (UniProt P0A8Q6). The conditions noted are these: cited from earlier work.
The target in experiment [1] is ClpS (additional molecules) (Escherichia coli) (UniProt P0A8Q6). The conditions noted are these: cited from earlier work.
The target of experiment [2] is full-length Mycobacterium tuberculosis ClpC1 (Mycobacterium tuberculosis H37Rv) (UniProt P9WPC9).
For experiment [3], the target named is T1, full-length Mycobacterium tuberculosis ClpC1 (Mycobacterium tuberculosis H37Rv, UniProt P9WPC9 1-848).
T1 construct: ClpC1 AAA+ ATPase, M. tuberculosis H37Rv, Rv3596c, full length; also called wild-type M. tuberculosis ClpC1; Full-Length ClpC1; not shown: His6-SUMO, N-terminal, cleaved
As to the kind of experiment: pull-down. The conditions noted are these: both partners purified.

Usually Kd stands for the free concentration of one partner at which half of the binding sites on the other are occupied at equilibrium, for simple one-to-one binding.

Chain of full-length Mycobacterium tuberculosis ClpC1 (Mycobacterium tuberculosis H37Rv) (P9WPC9 whole entry): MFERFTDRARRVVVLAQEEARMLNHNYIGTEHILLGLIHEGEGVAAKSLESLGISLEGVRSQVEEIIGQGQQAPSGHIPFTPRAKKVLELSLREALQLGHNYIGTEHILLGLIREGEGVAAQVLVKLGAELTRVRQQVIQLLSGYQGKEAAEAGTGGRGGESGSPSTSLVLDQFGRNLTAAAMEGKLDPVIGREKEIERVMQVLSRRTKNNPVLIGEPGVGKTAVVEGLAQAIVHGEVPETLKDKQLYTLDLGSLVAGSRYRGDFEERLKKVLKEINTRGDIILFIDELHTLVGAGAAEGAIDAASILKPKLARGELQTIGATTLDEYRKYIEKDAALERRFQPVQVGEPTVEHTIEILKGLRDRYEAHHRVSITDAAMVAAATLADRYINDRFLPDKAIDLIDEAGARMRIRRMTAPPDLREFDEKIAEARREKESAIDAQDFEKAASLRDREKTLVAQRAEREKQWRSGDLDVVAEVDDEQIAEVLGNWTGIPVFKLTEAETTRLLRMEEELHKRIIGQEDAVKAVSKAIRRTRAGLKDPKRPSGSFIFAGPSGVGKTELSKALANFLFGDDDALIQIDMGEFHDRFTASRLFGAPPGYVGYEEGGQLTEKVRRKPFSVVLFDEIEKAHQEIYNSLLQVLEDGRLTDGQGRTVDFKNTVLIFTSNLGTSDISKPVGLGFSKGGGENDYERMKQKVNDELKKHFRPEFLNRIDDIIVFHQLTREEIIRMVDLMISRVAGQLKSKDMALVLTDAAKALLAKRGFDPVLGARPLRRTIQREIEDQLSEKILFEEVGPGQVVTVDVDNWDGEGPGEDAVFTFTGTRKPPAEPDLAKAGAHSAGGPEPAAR
Chain of ClpS (additional molecules) (Escherichia coli) (P0A8Q6 whole entry): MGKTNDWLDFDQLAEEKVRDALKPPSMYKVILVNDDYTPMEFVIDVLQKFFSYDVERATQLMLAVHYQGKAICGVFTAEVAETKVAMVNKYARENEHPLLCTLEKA
Chain of ClpS (Escherichia coli) (P0A8Q6 whole entry): as above
T1 sequence (P9WPC9 whole entry): as the sequence (P9WPC9 whole entry) above

For the molecule ClpA (from UniProt P0ABH9), the Kd with ClpS (Escherichia coli) is 40 nM; in experiment [1] it was over 700 nM.

B1: Mycobacterium tuberculosis ClpS (His6-SUMO tag removed) (natural protein)
chain: MAVVSAPAKPGTTWQRESAPVDVTDRAWVTIVWDDPVNLMSYVTYVFQKLFGYSEPHATKLMLQVHNEGKAVVSAGSRESMEVDVSKLHAAGLWATMQQDR
Consider B1, for which, in experiment [2], the average binding stoichiometry inferred from k (UF,app) against [ClpS]T/[ClpC1]T, stopped-flow unfolding of SsrA-KaedeRed (ClpC1 subunits per ClpS) came to 2 and the inflection point of k (UF,app) against the ratio of total ClpS to total ClpC1 monomer concentration, stopped-flow unfolding of SsrA-KaedeRed ([ClpS]T/[ClpC1]T) was found to be 0.65.

B2: His6-SUMO-ClpS (Mycobacterium tuberculosis ClpS adaptor protein, His6-SUMO fusion) (natural protein)
chain: MAVVSAPAKPGTTWQRESAPVDVTDRAWVTIVWDDPVNLMSYVTYVFQKLFGYSEPHATKLMLQVHNEGKAVVSAGSRESMEVDVSKLHAAGLWATMQQDR
notes: also called His6-ClpS; His6-tagged ClpS; not shown: His6, N-terminal, kept; SUMO, N-terminal, kept
Consider B2, for which, in experiment [3], the binding result is on record as “binds”.

The values above are taken from PMC6274998, “Mycobacterium tuberculosis ClpC1 N-Terminal Domain Is Dispensable for Adaptor Protein-Dependent Allosteric Regulation” (International Journal of Molecular Sciences, 2018).
